Three molecules from patent US20160264651A1 (Hoffmann-La Roche, published 2016) can be followed below.

Where a chain is given by its changes, count along the chain named.

Test [1] deals with T1, E. coli-expressed human TNC A2 with C-terminal avi-tag and 6xHis-tag, biotinylated (human, biotinylated in vivo upon expression (avi-tag)).
T1 construct: Used for the selections and ELISA; also called hu TNC A2; biotinylated human TNC A2
T1 chain: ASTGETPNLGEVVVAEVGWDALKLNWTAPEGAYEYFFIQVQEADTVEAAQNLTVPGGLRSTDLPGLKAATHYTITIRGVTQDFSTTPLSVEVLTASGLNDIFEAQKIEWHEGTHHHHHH
Description: ELISA, biotinylated human TNC-A2 on neutravidin plates, Fab supernatants detected by anti-Flag/HRP. The method, then:
Selections were carried out over 3 rounds using constant antigen concentrations at 100 nM. In round 2, capture of antigen:phage complexes was performed on neutravidin plates instead of streptavidin beads. Specific binders were identified by ELISA as follows using: 100 μl of 100 nM biotinylated human TNC-A2 was coated in each well of neutravidin plates. Fab-containing bacterial supernatants were added and binding Fabs were detected via their Flag-tags by using an anti-Flag/HRP secondary antibody. Once identified, clone 2B10 was bacterially expressed in a 0.5 litre culture volume, affinity purified and further characterized by SPR-analysis using BIACORE T100. See SEQ ID NOs: 56 and 60.

Test [2] deals with T2, TNC Fn5-A1-murineA2-A3 antigen construct (murine TNC A2 domain in the context of domains A1 and A3), E. … (human; murine, UniProt P24821 991-1075; Q80YX1 1076-1257; P24821 1258-1350, limits assumed, biotinylated).
T2 construct: domain: fifth fibronectin type III domain (Fn5);domain: A1 and A2 domain;domain: A3 domain; also called Immob E. coli Ag
T2 sequence (looked up): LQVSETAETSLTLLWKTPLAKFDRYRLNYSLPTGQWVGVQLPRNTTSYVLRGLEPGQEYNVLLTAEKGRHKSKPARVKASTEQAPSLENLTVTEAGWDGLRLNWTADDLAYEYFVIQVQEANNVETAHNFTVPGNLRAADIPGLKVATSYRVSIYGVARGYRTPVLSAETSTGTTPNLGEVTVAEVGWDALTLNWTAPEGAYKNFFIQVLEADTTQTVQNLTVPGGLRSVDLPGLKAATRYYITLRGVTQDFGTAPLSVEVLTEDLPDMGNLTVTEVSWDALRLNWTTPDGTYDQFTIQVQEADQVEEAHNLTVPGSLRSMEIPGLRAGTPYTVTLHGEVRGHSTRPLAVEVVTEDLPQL
Briefly: SPR, Biacore T100, biotinylated antigen on streptavidin chip, Fab as analyte. How it is done:
(§1) The affinity of the TNC A2 2B10 Fab fragment as well as of the human IgG1 converted TNC A2 2B10 antibody was subsequently determined and confirmed for human, murine and cynomolgus TNC A2 domain by surface plasmon resonance using a BIACORE® T100 machine (GE Healthcare) at 25° C. For this purpose the biotinylated antigens (expressed in E. coli, antigen in context but not glycosylated) were immobilized on a streptavidin chip and the constructs were used as analytes. For immobilization the antigens were diluted with HBS-EP+ (GE Healthcare, 10 mM HEPES, 150 mM NaCl, 3 mM EDTA, 0.05% Surfactant P20, pH 7.4) to 0.1 μg/ml before injection at a flow rate of 10 μl/minute to achieve approximately 80 response units (RU) of coupled protein. The TNC A2 domain from man, mouse and cynomolgus monkey was expressed in the context of the domains A1 and A3. The antigen constructs comprising the fifth fibronectin type III domain of human TNC (Fn5), the A1 and A2 domain of either human, murine or cynomolgus TNC, and the A3 domain of human TNC (TNC Fn5-A1-human/murine/cynoA2-A3) are shown in SEQ ID NOs 99-104.
(§2) For kinetics measurements, two-fold serial dilutions of Fab fragments (range between 1.56 nM to 100 nM) or IgG (range between 0.39 nM to 25 nM) were injected in HBS-EP+ at 25° C. at a flow rate of 50 μl/min. Association and dissociation times were 180 s and a regeneration with 10 mM glycine pH 1.5 for 60 s was performed between cycles. Association rates (kₒₙ) and dissociation rates (koff) were calculated using a simple one-to-one Langmuir binding model (BIACORE® T100 Evaluation Software version 1.1.1) by simultaneously fitting the association and dissociation sensorgrams. The equilibrium dissociation constant (KD) was calculated as the ratio koff/kₒₙ. See, e.g., Chen et al., J Mol Biol 293, 865-881 (1999)
(In general: SPR reads the build-up and loss of mass on a sensor chip optically.)

In test [3] the target is T3, TNC Fn5-A1-humanA2-A3 antigen construct (human TNC A2 domain in the context of domains A1 and A3), E. … (human, UniProt P24821 991-1075; P24821 1076-1257; P24821 1258-1350, limits assumed, biotinylated).
T3 construct: domain: fifth fibronectin type III domain (Fn5);domain: A1 and A2 domain;domain: A3 domain; Not glycosylated; also called Immob E. coli Ag
T3 sequence (looked up): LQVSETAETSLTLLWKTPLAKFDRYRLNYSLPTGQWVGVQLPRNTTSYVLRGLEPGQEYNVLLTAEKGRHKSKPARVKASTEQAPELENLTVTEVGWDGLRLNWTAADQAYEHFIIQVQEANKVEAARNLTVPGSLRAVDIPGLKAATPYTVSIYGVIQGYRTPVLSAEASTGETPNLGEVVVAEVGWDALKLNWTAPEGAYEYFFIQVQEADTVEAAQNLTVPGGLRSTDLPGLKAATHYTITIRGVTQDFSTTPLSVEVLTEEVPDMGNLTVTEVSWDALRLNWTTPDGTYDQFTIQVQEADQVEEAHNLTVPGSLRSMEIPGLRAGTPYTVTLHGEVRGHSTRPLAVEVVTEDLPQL
The test is described as above. The method, then: as §1, §2

Test [4] addresses T4, TNC Fn5-A1-cynoA2-A3 antigen construct (cynomolgus TNC A2 domain in the context of domains A1 and A3), E. … (human; cynomolgus, UniProt P24821 991-1075; P24821 1258-1350).
T4 construct: also called Cyno TNC; Immob E. coli Ag
The test is described as above. The method, then:
as §1, §2

The target in test [5] is T2, TNC Fn5-A1-murineA2-A3 antigen …. Description: SPR, Biacore T100, biotinylated antigen on streptavidin chip, IgG as analyte (avidity). The method, then:
as §1, §2

The target in test [6] is T3, TNC Fn5-A1-humanA2-A3 antigen construct …. Described as above. How it is done:
as §1, §2

Test [7] has as its target T4, TNC Fn5-A1-cynoA2-A3 antigen construct …. The test is described as above. How it is done:
as §1, §2

For test [8], the target named is T1, E. coli-expressed human TNC A2 with …. Description: selection on human TNC A2, ELISA and ProteOn screening. How it is done: Selections were carried out against E. coli expressed human TNC A2 which was cloned upstream an avi-tag and 6×his-tag (see SEQ ID NO: 97). The antigen was biotinylated in vivo upon expression. Selections have been carried out in solution as described for the primary TNC A2 selections using decreasing concentrations of human TNC A2 ranging from 100 to 2 nM. After identification of affinity-matured clones by ELISA, secondary screenings were carried out using a ProteOn XPR36 biosensor (Biorad) and kinetic rate constants and affinities were determined analyzing affinity-purified Fab preparations on the same instrument. KD was measured by surface plasmon resonance using a ProteOn XPR36 machine (Biorad) at 25° C. with antigens immobilized on NLC sensor chips (Biorad). Briefly, recombinant antigen was diluted to 10 μg/ml in PBS/0.005% Tween-20, pH 7.4 and injected at […] for 100 to 300 s to achieve approximately 200-800 response units (RU) of coupled antigen. […] Association rates (kₒₙ) and dissociation rates (koff) were calculated using a simple one-to-one Langmuir binding model (ProteOn manager software version 2.1) by simultaneously fitting the association and dissociation sensorgrams. The equilibrium dissociation constant (KD) is calculated as the ratio koff/kₒₙ.
Background: ELISA stands for enzyme-linked immunosorbent assay.

B1: 2B10 anti-TNC A2 Fab fragment (parental clone 2B10) (Fab, V domains shown)
VH: QVQLVQSGAEVKKPGSSVKVSCKASGGTFSSYAISWVRQAPGQGLEWMGGIIPIFGTANYAQKFQGRVTITADKSTSTAYMELSSLRSEDTAVYYCARLYGYAYYGAFDYWGQGTTVTVSS
VL: DIQMTQSPSSLSASVGDRVTITCRASQGIRNDLGWYQQKPGKAPKRLIYAASSLQSGVPSRFSGGGSGTEFTLTISSLQPEDFATYYCLQNGLQPATFGQGTKVEIK
notes: also called TNC A2 2B10 Fab fragment; Fab fragment 2B10
B1: in test [1], the binding result is “binds”. For the same molecule, the Kd in test [2] was determined as 180 nM; in test [3], 1.8 nM; in test [4], 17 nM.

B2: 2B10 anti-TNC A2 human IgG1 antibody (wild-type, non-glycoengineered) (antibody, V domains shown)
VH: B1 VH
VL: B1 VL
notes: also called IgG 2B10; 2B10 human IgG
Take B2: the Kd in test [5] was 1.9 nM; in test [6] it was 0.29 nM; in test [7] it was 0.21 nM.

B3: 2B10_D1A2 affinity-matured anti-TNC A2 Fab clone (Fab, V domains shown)
VH: B1 VH
VL: B1 VL with D32V, A50D, S52Y
notes: From the VL sub-library; No KD is printed for this clone; also called clone 2B10_D1A2
B3: the binding result in test [8] is recorded as “binds”.
